{
  "source": "paper PMC5102900",
  "about": "“ROS-Mediated Inhibition of S-nitrosoglutathione Reductase Contributes to the Activation of Anti-oxidative Mechanisms” (Frontiers in Plant Science, 2016)",
  "molecular_target": "the molecule itself",
  "test": "SEC-MALS; size exclusion chromatography (Superdex 200 10/300 GL, 4°C) with static light scattering (right-angle, Viscotek TDA 305, 30°C); 50 mM Tris-HCl pH 8.0, 200 mM NaCl, with 10 mM DTT (reduced sample) or without (sample oxidized by 1 mM H2O2); approximately 1.5 mg/ml, 100 ul applied",
  "data": [
    {"protein": "Arabidopsis thaliana S-nitrosoglutathione reductase (GSNOR), recombinant His6-GSNOR, reduced (enzyme, UniProt Q96533 1-379, looked up, S-nitrosoglutathione reductase (GSNOR; glutathione-dependent formaldehyde dehydrogenase, class III alcohol dehydrogenase), Arabidopsis thaliana, At5g43940; Expressed from pDEST17 (Gateway); Run in buffer with 10 mM DTT; also called AtGSNOR; GSNO-reductase; source: E. coli BL21 DE3 pLysS, purified (Ni-NTA under reducing condition, followed by Äkta purification); not shown: His6, N-terminal, kept) MATQGQVITCKAAVAYEPNKPLVIEDVQVAPPQAGEVRIKILYTALCHTDAYTWSGKDPEGLFPCILGHEAAGIVESVGEGVTEVQAGDHVIPCYQAECRECKFCKSGKTNLCGKVRSATGVGIMMNDRKSRFSVNGKPIYHFMGTSTFSQYTVVHDVSVAKIDPTAPLDKVCLLGCGVPTGLGAVWNTAKVEPGSNVAIFGLGTVGLAVAEGAKTAGASRIIGIDIDSKKYETAKKFGVNEFVNPKDHDKPIQEVIVDLTDGGVDYSFECIGNVSVMRAALECCHKGWGTSVIVGVAASGQEISTRPFQLVTGRVWKGTAFGGFKSRTQVPWLVEKYMNKEIKVDEYITHNLTLGEINKAFDLLHEGTCLRCVLDTSK", "values": [
      {"measurement": "stoichiometry N", "result": 2}
    ]},
    {"protein": "Arabidopsis thaliana S-nitrosoglutathione reductase (GSNOR), recombinant His6-GSNOR, oxidized with 1 mM H2O2 (enzyme, UniProt Q96533 1-379, looked up, oxidized by 1 mM H2O2 (oxidative modifications of cysteine residues; which residues at this concentration is not stated), S-nitrosoglutathione reductase (GSNOR; glutathione-dependent formaldehyde dehydrogenase, class III alcohol dehydrogenase), Arabidopsis thaliana, At5g43940; Same construct as m1, treated with H2O2 (200 ug GSNOR, 1 mM H2O2) and run without DTT; Mass spectrometry at 0.5 and 5 mM H2O2 found reversible and sulfinic or sulfonic modifications on most detected cysteines, among them Cys47 and Cys177; also …) MATQGQVITCKAAVAYEPNKPLVIEDVQVAPPQAGEVRIKILYTALCHTDAYTWSGKDPEGLFPCILGHEAAGIVESVGEGVTEVQAGDHVIPCYQAECRECKFCKSGKTNLCGKVRSATGVGIMMNDRKSRFSVNGKPIYHFMGTSTFSQYTVVHDVSVAKIDPTAPLDKVCLLGCGVPTGLGAVWNTAKVEPGSNVAIFGLGTVGLAVAEGAKTAGASRIIGIDIDSKKYETAKKFGVNEFVNPKDHDKPIQEVIVDLTDGGVDYSFECIGNVSVMRAALECCHKGWGTSVIVGVAASGQEISTRPFQLVTGRVWKGTAFGGFKSRTQVPWLVEKYMNKEIKVDEYITHNLTLGEINKAFDLLHEGTCLRCVLDTSK", "values": [
      {"measurement": "stoichiometry N", "result": 2}
    ]}
  ]
}
